Results from patent US20230125550A1 (ARCELLX, published 2023).
Where a chain is given by its changes, count along the chain named.

T1: recombinant human CD123-Fc (human, UniProt P26951 19-305)
T1 construct: not shown: Fc part of CD123-Fc
T1 sequence: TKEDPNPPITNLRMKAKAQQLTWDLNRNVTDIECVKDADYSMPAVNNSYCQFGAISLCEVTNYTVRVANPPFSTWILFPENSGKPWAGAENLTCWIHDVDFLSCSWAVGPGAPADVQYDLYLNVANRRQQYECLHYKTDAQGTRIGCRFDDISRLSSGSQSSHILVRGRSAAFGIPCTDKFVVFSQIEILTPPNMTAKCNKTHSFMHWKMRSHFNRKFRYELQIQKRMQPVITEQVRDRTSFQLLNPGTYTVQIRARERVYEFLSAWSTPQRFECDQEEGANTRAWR

B1: SEQ ID NO 671 (designed binder)
chain: MGSWDEFSERLDAIWGRLEALGGSEAELATFEFHIAEFEHELQYYKGKGNPEVEALQGEAAAIINELYAYRHN
B2: SEQ ID NO 675 (designed binder)
chain: MGSWFEFEWRLDAIENRLNALGGSEAELAWFEYHIAAFEDSLQHYKGKGNPEVEALEWEAHAIQSELQAYRHN
B3: SEQ ID NO 670 (designed binder)
chain: MGSWYEFDARLDAIEERLYALGGSEAELAAFEFEIAGFEEALQWYKGKGNPEVEALLKEAEAITDELYAYRHN
B4: SEQ ID NO 669 (designed binder)
chain: MGSWNEFWERLDAIEWRLFALGGSEAELAFFELDIAWFEEELQWYKGKGNPEVEALIFEAHAITLELDAYRHN
B5: SEQ ID NO 712 (designed binder)
chain: MGSWIEFEDRLYAIEDRLWALGGSEAELAAFEKEIAAFESELQAYKGKGNPEVEFLRYEAAEIRYWLQAYRHN
B6: SEQ ID NO 676 (designed binder)
chain: MGSWYEFDDRLEAIWDRLGALGGSEAELAAFEKEIAAFESELQAYKGKGNPEVEWLRETAADIRAELQAYRHN
B7: SEQ ID NO 720 (designed binder)
chain: B5 chain with I5Y, E8W, Y12E, D16E, F55Y, Y58L, E62D, Y65R, W66I
B8: SEQ ID NO 722 (designed binder)
chain: B5 chain with I5Y, D9N, Y12E, D16E, F55M, Y58E, E62F, Y65D
B9: SEQ ID NO 725 (designed binder)
chain: B5 chain with I5Y, D9H, Y12D, E15Y, F55W, Y58E, E62W, Y65L
B10: SEQ ID NO 715 (designed binder)
chain: B5 chain with I5W, D9H, Y12F, Y58D, E59Y, Y65D, W66Y
B11: SEQ ID NO 710 (designed binder)
chain: B5 chain with I5F, Y12D, E15W, Y58M, E59D, E62M, W66I
B12: SEQ ID NO 679 (designed binder)
chain: B6 chain with Y5T, D9R, E12D, G19F, T59E, A65D, E66Y
B13: SEQ ID NO 718 (designed binder)
chain: B5 chain with I5Y, E8Y, D9N, Y12D, F55Y, Y58Q, E62D, Y65G, W66Q
B14: SEQ ID NO 708 (designed binder)
chain: B5 chain with I5T, D9W, W19M, Y58D, E62D, Y65Q, W66Y
B15: SEQ ID NO 696 (designed binder)
chain: MGSWWEFESRLDAIFMRLTALGGSEAELAAFEKEIAAFESELQAYKGKGNPEVEDLREDAAFIREFLQAYRHN
B16: SEQ ID NO 713 (designed binder)
chain: B5 chain with I5Y, E8W, Y12E, E59S, W66Q
B17: SEQ ID NO 729 (designed binder)
chain: B5 chain with I5F, D9W, Y12E, E15F, W19Y, F55V, Y58A, Y65L, W66R
B18: SEQ ID NO 709 (designed binder)
chain: B5 chain with D9S, Y12W, W19L, Y58L, E62D, Y65E, W66D
B19: SEQ ID NO 717 (designed binder)
chain: B5 chain with I5Y, D9W, Y12M, F55Y, Y58H, Y65D, W66V
B20: SEQ ID NO 724 (designed binder)
chain: B5 chain with I5Y, D9N, Y12G, E15G, F55W, Y58D, E62Y, Y65A, W66V
B21: SEQ ID NO 683 (designed binder)
chain: B5 chain with I5M, E8I, Y12D, D16H, Y58E, Y65M, W66Y
B22: SEQ ID NO 705 (designed binder)
chain: B5 chain with I5V, E8W, Y12W, F55H, Y58H, E59Y, E62D, Y65V
B23: SEQ ID NO 719 (designed binder)
chain: B5 chain with I5W, E8H, Y12E, F55Y, Y58I, E62D, Y65R, W66Q
B24: SEQ ID NO 687 (designed binder)
chain: MGSWVEFYDRLDAIEHRLDALGGSEAELAAFEKEIAAFESELQAYKGKGNPEVEWLRDEAAFIRDMLQAYRHN
B25: SEQ ID NO 695 (designed binder)
chain: B15 chain with S9D, F15E, M16Y, T19F, D55F, D59E, E65I
B26: SEQ ID NO 689 (designed binder)
chain: B24 chain with V5F, Y8L, H16E, D19W, D58E, F62V, M66S
B27: SEQ ID NO 680 (designed binder)
chain: B6 chain with Y5T, D9M, E12D, G19F, W55E, T59E, D62T, A65G, E66V
B28: SEQ ID NO 682 (designed binder)
chain: B5 chain with I5V, E8R, Y12D, D16T, F55W, Y65M, W66V
B29: SEQ ID NO 706 (designed binder)
chain: B5 chain with I5Y, E8A, Y12W, E59Y, E62D, Y65W, W66V
B30: SEQ ID NO 727 (designed binder)
chain: B24 chain with Y8E, D9N, D12E, H16N, D19W, D58E, E59D, F62Q, D65M
B31: SEQ ID NO 684 (designed binder)
chain: B5 chain with I5T, E8V, D9W, Y12D, D16W, W19E, Y58E, Y65D
B32: SEQ ID NO 690 (designed binder)
chain: B5 chain with I5Y, E8M, D9V, Y12D, D16E, W19F, Y58E, E62S, W66H
B33: SEQ ID NO 685 (designed binder)
chain: B5 chain with I5V, E8Y, D16V, W19L, Y58Q, Y65D
B34: SEQ ID NO 723 (designed binder)
chain: B5 chain with I5Y, D9Y, Y12E, F55Y, Y58E, E62W, Y65V
B35: SEQ ID NO 688 (designed binder)
chain: B5 chain with I5F, E8V, Y12T, E15Q, D16V, F55Y, Y58E, E62L, W66S
B36: SEQ ID NO 728 (designed binder)
chain: B6 chain with D8E, D9E, W15E, G19W, T59Q, D62F, A65T, E66M
B37: SEQ ID NO 726 (designed binder)
chain: B6 chain with D8E, D9W, E12D, W15Y, T59D, D62E, E66L
B38: SEQ ID NO 721 (designed binder)
chain: B5 chain with I5Y, D9E, Y12W, D16E, W19Y, F55Y, E62W, Y65D, W66F
B39: SEQ ID NO 711 (designed binder)
chain: B5 chain with I5E, Y12W, F55I, E59D, E62Y, Y65E, W66I
B40: SEQ ID NO 707 (designed binder)
chain: B5 chain with I5Y, D9E, W19Y, Y58Q, E62D, Y65L, W66M
B41: SEQ ID NO 693 (designed binder)
chain: B24 chain with Y8E, D9Y, E15T, H16E, D19L, W55I, D58E, D65Q, M66W
B42: SEQ ID NO 681 (designed binder)
chain: B5 chain with I5E, E8H, Y12M, D16T, F55W, E62D, Y65D, W66Y
B43: SEQ ID NO 686 (designed binder)
chain: B24 chain with V5Y, H16W, D19W, F62Q, M66F
B44: SEQ ID NO 694 (designed binder)
chain: B24 chain with V5W, Y8L, H16M, D19F, W55Y, D58E, F62L, D65N
B45: SEQ ID NO 714 (designed binder)
chain: B5 chain with I5V, D9S, Y12A, D16H, F55E, Y58E, E59Y, Y65D
B46: SEQ ID NO 716 (designed binder)
chain: B5 chain with I5Y, E8D, D9S, Y12M, F55Y, Y58Q, Y65M, W66I
B47: SEQ ID NO 678 (designed binder)
chain: B5 chain with D9V, Y12D, E15W, W19F, F55Y, Y58D, E62D, Y65Q, W66S
B48: SEQ ID NO 673 (designed binder)
chain: MGSWDEFDDRLEAIVDRLFALGGSEAELAMFEFEIAQFEHQLQYYKGKGNPEVEALRDEADAIWIELDAYRHN
B49: SEQ ID NO 672 (designed binder)
chain: MGSWDEFWDRLDAIEDRLFALGGSEAELADFERVIAWFENDLQEYKGKGNPEVEALDNEADAIRIELHAYRHN
B50: SEQ ID NO 674 (designed binder)
chain: MGSWEEFTIRLGAIYWRLFALGGSEAELANFEWFIAEFEYELQPYKGKGNPEVEALVIEANAIDGELQAYRHN
B51: SEQ ID NO 668 (designed binder)
chain: MGSWYEFADRLDAIMDRLVALGGSEAELAYFEWEIAAFEEFLQMYKGKGNPEVEALDEEAEAIKDELMAYRHN

Each binder was assayed against T1, recombinant human CD123-Fc (assay: phage ELISA, A450 target/A450 IgG1-Fc).
Summary of the method: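 Phage rescued with VCSM13 helper phage from phagemid colonies picked from panning output were tested on plates coated with goat anti-human IgG1-Fc antibody that carried either recombinant human target or IgG1-Fc. Bound phage were detected with HRP-conjugated anti-M13 antibody at 450 nm. The ELISA ratio is target absorbance over IgG1-Fc absorbance, averaged across all screened wells holding the clone.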

Binder | ELISA_avg [ratio]
B1 | 3.2
B2 | 3.3
B3 | 8.9
B4 | 3
B5 | 4
B6 | 3.3
B7 | 4.6
B8 | 6.1
B9 | 6.3
B10 | 7.6
B11 | 5.1
B12 | 9.2
B13 | 11.3
B14 | 4.2
B15 | 3.7
B16 | 4.2
B17 | 6.9
B18 | 8.7
B19 | 3.4
B20 | 4.8
B21 | 4.3
B22 | 4.5
B23 | 6.4
B24 | 3.4
B25 | 4.9
B26 | 12.2

Binder | ELISA_avg [ratio]
B27 | 3.1
B28 | 4.2
B29 | 4
B30 | 6.2
B31 | 4.2
B32 | 4.1
B33 | 5.8
B34 | 6.2
B35 | 5.1
B36 | 6
B37 | 6
B38 | 5.4
B39 | 4.1
B40 | 11.5
B41 | 3.9
B42 | 4.3
B43 | 6.2
B44 | 9
B45 | 3.7
B46 | 3.2
B47 | 4.2
B48 | 5.6
B49 | 3.9
B50 | 3.3
B51 | 3.3
